# ± gives the standard deviation.
# Assay: protein stability index of a GFP-peptide fusion (GPS, HEK-293T) (PSI 1-6); higher = more stable
# [1] = treatment: DMSO, c terminus: a fixed tail appended
# [2] = treatment: MLN4924 1 uM, 8 h, c terminus: a fixed tail appended
# 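Also: 24-mer peptide tiles fused after GFP, lentivirally expressed, FACS-sorted into six equal bins by GFP/DsRed ratio, decoded by Illumina sequencing, PSI is the read-weighted mean bin number.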
sequence,measurement,setting,value
WKESKGKDREYTDIIRKQVLGTKV [CDC34],protein stability index,[1],3.66 ± 0.17
same,protein stability index,[2],3.7 ± 0.4
GARPLSTRVPRAAIVFTDGRAQDD [MATN2],protein stability index,[2],4.48 ± 0.68
YILELDDGNGGQFREVYVGKETMC [TRIM9],protein stability index,[1],2.28 ± 0.11
same,protein stability index,[2],2.29 ± 0.16
AQAGGSKKAEQKKKEKIIEDKTFG [ZC3H15],protein stability index,[1],5.12 ± 0.17
same,protein stability index,[2],5.23 ± 0.16
PARDYVVLRTWRTNLPKGACALLL [DLC1],protein stability index,[1],2.47 ± 1.3
same,protein stability index,[2],2.22 ± 0.4
ASGHEPGGSAVCASRVKLQHLPAQ [PLEKHN1],protein stability index,[1],4.11 ± 0.27
same,protein stability index,[2],3.95 ± 0.14
DLDFKHHNYKEMRQLMKVVNEMCP [CPXM2],protein stability index,[1],2.93 ± 0.21
same,protein stability index,[2],2.66 ± 0.31
KDLFTQRQNSAPARMLSSNERDSS [CDC25A],protein stability index,[1],4.88 ± 0.23
same,protein stability index,[2],4.84 ± 0.25
NTHVSQVFNLFRTMGLRHLPVVNA [CLCN6],protein stability index,[1],2.57 ± 0.39
same,protein stability index,[2],2.12 ± 0.15
ELERFVNLHSLALDFCDFTAEMAR [FBXO33],protein stability index,[1],2.23 ± 0.11
same,protein stability index,[2],2.61 ± 0.29
ADLLAGFGGSFMAPSPSPVTPAQN [SNAP91],protein stability index,[1],4.16 ± 0.38
same,protein stability index,[2],4.28 ± 0.24
AQEVSPCGPPSLGAVLALVAIFIM [MFSD9],protein stability index,[1],2 ± 0.15
same,protein stability index,[2],1.93 ± 0.39
ASAEAPGDSGERSEGEAMEICSEP [ZNF511],protein stability index,[1],5.54 ± 0.21
same,protein stability index,[2],5.47 ± 0.29
QLDMFYRNWALKESFIKAIGVGLG [AASDHPPT],protein stability index,[1],2.78 ± 0.1
same,protein stability index,[2],2.92 ± 0.58
LRRRIENGAKELWFFLQSELKKLK [FUT8],protein stability index,[1],2.85 ± 0.43
same,protein stability index,[2],2.52 ± 0.4
ADGGGAPPQGGCGGGGCDRYEPLP [KCNA3],protein stability index,[1],4.54 ± 0.32
same,protein stability index,[2],4.75 ± 0.16
SVFSARDRDPNSLLISCAVSYRGA [TNXB],protein stability index,[1],2.4 ± 0.22
same,protein stability index,[2],2.06 ± 0.16
LASPHTVAAVLEAVAQTAHLPADS [RSAD1],protein stability index,[1],3.61 ± 0.33
same,protein stability index,[2],3.83 ± 0.25
ELALALKGNTTLQQLDLRWNNVGL [LRRC45],protein stability index,[1],2.19 ± 0.42
same,protein stability index,[2],2.07 ± 0.35
SGRGTGRGGGGGGGGGAPRGRYGP [SRSF1],protein stability index,[1],4.79 ± 0.24
same,protein stability index,[2],4.83 ± 0.15
QSPDEKPLVALDTDSDDDFDMSRY [FAM219A],protein stability index,[1],5.44 ± 0.26
same,protein stability index,[2],5.46 ± 0.23
SELTRLIQRIRSEIENVKKQASNL [KRT71],protein stability index,[1],2.09 ± 0.068
same,protein stability index,[2],2.22 ± 0.21
LPEKACQLDSRYWRITNAKGDVEE [FBXO3],protein stability index,[1],4.47 ± 0.11
same,protein stability index,[2],4.49 ± 0.52
ESHEVPGTLSMGVPQIFKYGETCF [ZNF24],protein stability index,[1],2.74 ± 0.39
same,protein stability index,[2],2.89 ± 0.73
LDDGEIDEIRWKYHSDTTPKIIES [IQUB],protein stability index,[1],4.25 ± 0.23
same,protein stability index,[2],3.98 ± 0.24
VQLHNGTKYKKFPHWLDKWMLTRK [STEAP1],protein stability index,[1],2.36 ± 0.044
same,protein stability index,[2],2.19 ± 0.096
QVLNAIEAYTEHRPEITSRAINLL [ZER1],protein stability index,[1],2.56 ± 0.27
same,protein stability index,[2],2.66 ± 0.32
EMHFLENAKKLSMYGVDLHHAKDS [EPB41L3],protein stability index,[1],3.03 ± 0.67
same,protein stability index,[2],2.8 ± 0.25
MAKRIGKDLSNTFAKLEKLTILAK [STX5],protein stability index,[1],2.77 ± 0.69
same,protein stability index,[2],2.77 ± 0.53
VAIFGPPNTYYEGGYFKARLKFPI [CDC34],protein stability index,[1],2.24 ± 0.41
same,protein stability index,[2],2.58 ± 0.3
ISFNKTMTQLSSTLARCAKDILGF [PKD2L1],protein stability index,[1],2.96 ± 0.85
same,protein stability index,[2],2.62 ± 0.56
KDTRMAEEYCHKHYDRNKDGNKDV [VPS39],protein stability index,[1],4.68 ± 0.21
same,protein stability index,[2],5.03 ± 0.23
ANISIANKYDNTCLMIAAYKGHTD [FEM1B],protein stability index,[1],2.75 ± 0.17
same,protein stability index,[2],2.98 ± 0.32
SAALFYLTNSEYRSEQSVKLRRQV [ZER1],protein stability index,[1],2.85 ± 0.57
same,protein stability index,[2],2.83 ± 0.069
LKAFNMFVRLFVDENLDRMVPISK [NOL4L],protein stability index,[1],2.67 ± 0.61
same,protein stability index,[2],2.41 ± 0.27
LAGTQLLYAFFTRTHGDMHSLVRS [TRIB3],protein stability index,[1],3.13 ± 0.38
same,protein stability index,[2],3.05 ± 0.35
SLKDQERVAEVSRVRVELQEQNGR [LRRC45],protein stability index,[1],5.17 ± 0.45
same,protein stability index,[2],4.91 ± 0.26
ASTPAQTAAGGQGGPGGPGSDKQQ [NR2F2],protein stability index,[1],5.58 ± 0.26
same,protein stability index,[2],5.59 ± 0.3
IALFTARLHHPHKSVQHVVLQALF [PTPN9],protein stability index,[1],2.59 ± 0.54
same,protein stability index,[2],3.13 ± 0.72
SGCSSELKNRMEYALNMLLQRCN [PLK2],protein stability index,"treatment: DMSO, c terminus: native",3.57 ± 0.15
same,protein stability index,"treatment: MLN4924 1 uM, 8 h, c terminus: native",3.77 ± 0.12
RAGHHPNQYATCRLCGRQVSRGPG [ZBED2],protein stability index,[1],2.35 ± 0.38
same,protein stability index,[2],2.67 ± 0.59
YVRLVCKDVRAPSRPAVGPPQPGC [ZSWIM9],protein stability index,[1],2.22 ± 0.23
same,protein stability index,[2],2.4 ± 0.27
TPFLTNHGAHKAEKKLFECLTCGK [ZNF263],protein stability index,[1],3.32 ± 0.34
same,protein stability index,[2],3.53 ± 0.67
LSGVSQLLPKSRENYLNRCMDQER [FCHO1],protein stability index,[1],3.78 ± 0.21
same,protein stability index,[2],3.95 ± 0.14
RAFNTDHQTQLLYQASAMMVESRY [RAD51],protein stability index,[1],2.42 ± 0.35
same,protein stability index,[2],2.68 ± 0.22

# Reference: the supplement of paper PMC10567573
